Results published in publication PMC9352680, “A comprehensive thermodynamic model for RNA binding by the Saccharomyces cerevisiae Pumilio protein PUF4”.

T1: PUF4 RNA-binding domain (Saccharomyces cerevisiae, UniProt P25339 537-888)
T1 sequence: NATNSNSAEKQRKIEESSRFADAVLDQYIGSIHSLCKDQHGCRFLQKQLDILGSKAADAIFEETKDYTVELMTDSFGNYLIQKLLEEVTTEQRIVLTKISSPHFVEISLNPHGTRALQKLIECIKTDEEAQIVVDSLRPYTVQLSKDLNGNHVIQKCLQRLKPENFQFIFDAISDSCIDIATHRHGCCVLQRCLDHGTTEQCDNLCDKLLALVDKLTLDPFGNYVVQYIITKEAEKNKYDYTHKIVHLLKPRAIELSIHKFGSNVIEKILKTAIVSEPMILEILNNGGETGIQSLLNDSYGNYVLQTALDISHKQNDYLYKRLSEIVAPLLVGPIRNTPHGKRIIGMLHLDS


Target: T1, PUF4 RNA-binding domain
Experiment: Mg; RNA-MaP; 20 mM Na-HEPES pH 7.4, 30 mM KOAc, 0.75 mM MgCl2, 0.1% Tween-20, 5% glycerol, 0.1 mg/mL BSA, 2 mM DTT; 25 C; 0.0125-409.6 nM protein
Details: tags: N-His6-TEV cleaved; C-SNAP kept, Cy3B-labelled; label: tethered on chip by stalled RNA polymerase

| Binder | Kd |
| --- | --- |
| ACAAACAUACACUAUACUACAAAC (ssRNA) [Id_ii_S3_P3E.4_K3.3_C3.2_[C-2A]_H3.3_A3.1_F3.1_T3.2_[T9C]_[A10T]] | 1070 nM |
| UCUCUUUGUAAUAUUCUCUCUU (ssRNA) [Ib_S1_P5E.1_K5.1_C5.1_H5.1_A5.1_[T5A]_F5.1_[A10C]_T5.1] | 21.6 nM |
| ACAAACAGACACUAUACAACAAAC (ssRNA) [Id_ii_S3_P3E.4_K3.3_C3.2_[C-2A]_[T-1G]_H3.3_A3.1_F3.1_T3.2_[T9C]] | > 2300 nM |
| ACAAACCUUAUAUAUAUCACAAAC (ssRNA) [Id_ii_S3_P3E.3_K3.2_C3.2_H3.2_A3.1_F3.1_T3.2_[A10C]] | 396 nM |
| ACAAACUUACACUAUAAAACAAAC (ssRNA) [Id_ii_S3_P3E.4_K3.3_C3.2_[C-2T]_H3.3_A3.1_F3.1_T3.2_[T9A]] | > 2300 nM |
| ACAAACAAACACUAUAGGACAAAC (ssRNA) [Id_ii_S3_P3E.4_K3.3_C3.2_[C-2A]_[T-1A]_H3.3_A3.1_F3.1_T3.2_[T9G]_[A10G]] | > 2300 nM |
| ACAAACACACACUAUAGCACAAAC (ssRNA) [Id_ii_S3_P3E.4_K3.3_C3.2_[C-2A]_[T-1C]_H3.3_A3.1_F3.1_T3.2_[T9G]_[A10C]] | > 2300 nM |
| ACAAACGUACACUAUAACACAAAC (ssRNA) [Id_ii_S3_P3E.4_K3.3_C3.2_[C-2G]_H3.3_A3.1_F3.1_T3.2_[T9A]_[A10C]] | 100 nM |
| ACAAACUCACACUAUAGCACAAAC (ssRNA) [Id_ii_S3_P3E.4_K3.3_C3.2_[C-2T]_[T-1C]_H3.3_A3.1_F3.1_T3.2_[T9G]_[A10C]] | > 2300 nM |
| ACAAACGUACACUAUACCACAAAC (ssRNA) [Id_ii_S3_P3E.4_K3.3_C3.2_[C-2G]_H3.3_A3.1_F3.1_T3.2_[T9C]_[A10C]] | 105 nM |
| ACAAACUUACACUAUAGCACAAAC (ssRNA) [Id_ii_S3_P3E.4_K3.3_C3.2_[C-2T]_H3.3_A3.1_F3.1_T3.2_[T9G]_[A10C]] | 2170 nM |
| UCUCUUUGUAAUAUUGUCUCUU (ssRNA) [Ic_S1_P5E.1_K5.1_C5.1_H5.1_A5.1_[T5A]_F5.1_[A10G]_T5.1] | 14.9 nM |
| ACAAACGAACACUAUAAUACAAAC (ssRNA) [Id_ii_S3_P3E.4_K3.3_C3.2_[C-2G]_[T-1A]_H3.3_A3.1_F3.1_T3.2_[T9A]_[A10T]] | > 2300 nM |
| ACAAACGCACACUAUAAUACAAAC (ssRNA) [Id_ii_S3_P3E.4_K3.3_C3.2_[C-2G]_[T-1C]_H3.3_A3.1_F3.1_T3.2_[T9A]_[A10T]] | > 2300 nM |
| ACAAACCUUAUAUAUAGCACAAAC (ssRNA) [Id_ii_S3_P3E.3_K3.2_C3.2_H3.2_A3.1_F3.1_T3.2_[T9G]_[A10C]] | 144 nM |
| ACAAACGAACACUAUAUCACAAAC (ssRNA) [Id_ii_S3_P3E.4_K3.3_C3.2_[C-2G]_[T-1A]_H3.3_A3.1_F3.1_T3.2_[A10C]] | > 2300 nM |

| Binder | Kd |
| --- | --- |
| ACAAACUCACACUAUAGAACAAAC (ssRNA) [Id_ii_S3_P3E.4_K3.3_C3.2_[C-2T]_[T-1C]_H3.3_A3.1_F3.1_T3.2_[T9G]] | > 2300 nM |
| ACAAACUAACACUAUAUAACAAAC (ssRNA) [Id_ii_S3_P3E.4_K3.3_C3.2_[C-2T]_[T-1A]_H3.3_A3.1_F3.1_T3.2] | > 2300 nM |
| ACAAACCGACACUAUACUACAAAC (ssRNA) [Id_ii_S3_P3E.4_K3.3_C3.2_[T-1G]_H3.3_A3.1_F3.1_T3.2_[T9C]_[A10T]] | > 2300 nM |
| ACAAACCAUAUAUAUAAAACAAAC (ssRNA) [Id_ii_S3_P3E.3_K3.2_C3.2_[T-1A]_H3.2_A3.1_F3.1_T3.2_[T9A]] | 1420 nM |
| ACAAACUCACACUAUAUUACAAAC (ssRNA) [Id_ii_S3_P3E.4_K3.3_C3.2_[C-2T]_[T-1C]_H3.3_A3.1_F3.1_T3.2_[A10T]] | 2080 nM |
| ACAAACCUUAUAUAUAUUACAAAC (ssRNA) [Id_ii_S3_P3E.3_K3.2_C3.2_H3.2_A3.1_F3.1_T3.2_[A10T]] | 28.1 nM |
| ACAAACAUACACUAUAUCACAAAC (ssRNA) [Id_ii_S3_P3E.4_K3.3_C3.2_[C-2A]_H3.3_A3.1_F3.1_T3.2_[A10C]] | 1230 nM |
| ACAAACAAACACUAUACAACAAAC (ssRNA) [Id_ii_S3_P3E.4_K3.3_C3.2_[C-2A]_[T-1A]_H3.3_A3.1_F3.1_T3.2_[T9C]] | > 2300 nM |
| ACAAACCGACACUAUAUAACAAAC (ssRNA) [Id_ii_S3_P3E.4_K3.3_C3.2_[T-1G]_H3.3_A3.1_F3.1_T3.2] | > 2300 nM |
| ACAAACUGACACUAUAAGACAAAC (ssRNA) [Id_ii_S3_P3E.4_K3.3_C3.2_[C-2T]_[T-1G]_H3.3_A3.1_F3.1_T3.2_[T9A]_[A10G]] | > 2300 nM |
| ACAAACGCACACUAUAAGACAAAC (ssRNA) [Id_ii_S3_P3E.4_K3.3_C3.2_[C-2G]_[T-1C]_H3.3_A3.1_F3.1_T3.2_[T9A]_[A10G]] | > 2300 nM |
| ACAAACCUUAUAUAUAUGACAAAC (ssRNA) [Id_ii_S3_P3E.3_K3.2_C3.2_H3.2_A3.1_F3.1_T3.2_[A10G]] | 632 nM |
| ACAAACGUACACUAUAUCACAAAC (ssRNA) [Id_ii_S3_P3E.4_K3.3_C3.2_[C-2G]_H3.3_A3.1_F3.1_T3.2_[A10C]] | 51 nM |
| ACAAACGAACACUAUACAACAAAC (ssRNA) [Id_ii_S3_P3E.4_K3.3_C3.2_[C-2G]_[T-1A]_H3.3_A3.1_F3.1_T3.2_[T9C]] | > 2300 nM |
| ACAAACCUUAUAUAUAUAACAAAC (ssRNA) [Id_ii_S3_P3E.3_K3.2_C3.2_H3.2_A3.1_F3.1_T3.2] | 500 nM |
| ACAAACUUACACUAUAUAACAAAC (ssRNA) [Id_ii_S3_P3E.4_K3.3_C3.2_[C-2T]_H3.3_A3.1_F3.1_T3.2] | 968 nM |
